Sequences and labels used below:
B1: CE115HA000 D101A one-arm antibody (antibody, human IgG1, kappa, L234A L235A, N297A, name in Kabat numbering)
heavy: QVQLVESGGGVVQPGRSLRLSCAASGFTFSNAWMHWVRQAPGKGLEWVAQIKAKSNNYATYYAESVKGRFTISRDDSKNSLYLQMNSLKTEDTAVYYCRYVHYGAYYGVAAWGQGTTVTVSSASTKGPSVFPLAPSSKSTSGGTAALGCLVKDYFPEPVTVSWNSGALTSGVHTFPAVLQSSGLYSLSSVVTVPSSSLGTQTYICNVNHKPSNTKVDKKVEPKSCDKTHTCPPCPAPEAAGGPSVFLFPPKPKDTLMISRTPEVTCVVVDVSHEDPEVKFNWYVDGVEVHNAKTKPREEQYASTYRVVSVLTVLHQDWLNGKEYKCKVSNKALPAPIEKTISKAKGQPREPQVYTLPPSRCELTKNQVSLSCAVKGFYPSDIAVEWESNGQPENNYKTTPPVLDSDGSFFLVSKLTVDKSRWQQGNVFSCSVMHEALHNHYTQKSLSLSPDYKDDDDK
chain: EPKSSDKTHTCPPCPAPELLGGPSVFLFPPKPKDTLMISRTPEVTCVVVDVSHEDPEVKFNWYVDGVEVHNAKTKPREEQYNSTYRVVSVLTVLHQDWLNGKEYKCKVSNKALPAPIEKTISKAKGQPREPQVCTLPPSRDELTKNQVSLWCLVKGFYPSDIAVEWESNGQPENNYKTTPPVLDSDGSFFLYSKLTVDKSRWQQGNVFSCSVMHEALHNRYTQKSLSLSP
light: DIVMTQSPLSLPVTPGEPASISCRSSQSLVHSNRNTYLHWYQQKPGQAPRLLIYKVSNRFSGVPDRFSGSGSGTDFTLKISRVEAEDVGVYYCGQGTQVPYTFGQGTKLEIKRTVAAPSVFIFPPSDEQLKSGTASVVCLLNNFYPREAKVQWKVDNALQSGNSQESVTEQDSKDSTYSLSSTLTLSKADYEKHKVYACEVTHQGLSSPVTKSFNRGEC
notes: one-arm antibody
B2: CE115HA000 D73A one-arm antibody (antibody, human IgG1, kappa, L234A L235A, N297A, name in Kabat numbering)
heavy: B1 heavy with D76A, A110D
chain: B1 chain
light: B1 light
notes: one-arm antibody
B3: CE115HA000 D101L one-arm antibody (antibody, human IgG1, kappa, L234A L235A, N297A, name in Kabat numbering)
heavy: B1 heavy with A110L
chain: B1 chain
light: B1 light
notes: one-arm antibody
B4: CE115HA000 D101M one-arm antibody (antibody, human IgG1, kappa, L234A L235A, N297A, name in Kabat numbering)
heavy: B1 heavy with A110M
chain: B1 chain
light: B1 light
notes: one-arm antibody
B5: CE115HA000 A99T one-arm antibody (antibody, human IgG1, kappa, L234A L235A, N297A, name in Kabat numbering)
heavy: B1 heavy with A105T, A110D
chain: B1 chain
light: B1 light
notes: one-arm antibody
B6: CE115HA000 D73R one-arm antibody (antibody, human IgG1, kappa, L234A L235A, N297A, name in Kabat numbering)
heavy: B1 heavy with D76R, A110D
chain: B1 chain
light: B1 light
notes: one-arm antibody
B7: CE115HA000 A102P one-arm antibody (antibody, human IgG1, kappa, L234A L235A, N297A, name in Kabat numbering)
heavy: B1 heavy with A110D, A111P
chain: B1 chain
light: B1 light
notes: one-arm antibody
B8: CE115HA000 A102V one-arm antibody (antibody, human IgG1, kappa, L234A L235A, N297A, name in Kabat numbering)
heavy: B1 heavy with A110D, A111V
chain: B1 chain
light: B1 light
notes: one-arm antibody
B9: CE115HA000 D72E one-arm antibody (antibody, human IgG1, kappa, L234A L235A, N297A, name in Kabat numbering)
heavy: B1 heavy with D75E, A110D
chain: B1 chain
light: B1 light
notes: one-arm antibody
B10: CE115HA000 D101K one-arm antibody (antibody, human IgG1, kappa, L234A L235A, N297A, name in Kabat numbering)
heavy: B1 heavy with A110K
chain: B1 chain
light: B1 light
notes: one-arm antibody
B11: CE115HA000 A102Y one-arm antibody (antibody, human IgG1, kappa, L234A L235A, N297A, name in Kabat numbering)
heavy: B1 heavy with A110D, A111Y
chain: B1 chain
light: B1 light
notes: one-arm antibody
B12: CE115HA000 A99D one-arm antibody (antibody, human IgG1, kappa, L234A L235A, N297A, name in Kabat numbering)
heavy: B1 heavy with A105D, A110D
chain: B1 chain
light: B1 light
notes: one-arm antibody
B13: CE115HA000 A99S one-arm antibody (antibody, human IgG1, kappa, L234A L235A, N297A, name in Kabat numbering)
heavy: B1 heavy with A105S, A110D
chain: B1 chain
light: B1 light
notes: one-arm antibody
B14: CE115HA000 D72A one-arm antibody (antibody, human IgG1, kappa, L234A L235A, N297A, name in Kabat numbering)
heavy: B1 heavy with D75A, A110D
chain: B1 chain
light: B1 light
notes: one-arm antibody
B15: CE115HA000 A99K one-arm antibody (antibody, human IgG1, kappa, L234A L235A, N297A, name in Kabat numbering)
heavy: B1 heavy with A105K, A110D
chain: B1 chain
light: B1 light
notes: one-arm antibody
B16: CE115HA000 A99Y one-arm antibody (antibody, human IgG1, kappa, L234A L235A, N297A, name in Kabat numbering)
heavy: B1 heavy with A105Y, A110D
chain: B1 chain
light: B1 light
notes: one-arm antibody
B17: CE115HA000 D73G one-arm antibody (antibody, human IgG1, kappa, L234A L235A, N297A, name in Kabat numbering)
heavy: B1 heavy with D76G, A110D
chain: B1 chain
light: B1 light
notes: one-arm antibody
B18: CE115HA000 A99F one-arm antibody (antibody, human IgG1, kappa, L234A L235A, N297A, name in Kabat numbering)
heavy: B1 heavy with A105F, A110D
chain: B1 chain
light: B1 light
notes: one-arm antibody
B19: CE115HA000 D101G one-arm antibody (antibody, human IgG1, kappa, L234A L235A, N297A, name in Kabat numbering)
heavy: B1 heavy with A110G
chain: B1 chain
light: B1 light
notes: one-arm antibody
B20: CE115HA000 D73K one-arm antibody (antibody, human IgG1, kappa, L234A L235A, N297A, name in Kabat numbering)
heavy: B1 heavy with D76K, A110D
chain: B1 chain
light: B1 light
notes: one-arm antibody
B21: CE115HA000 D73N one-arm antibody (antibody, human IgG1, kappa, L234A L235A, N297A, name in Kabat numbering)
heavy: B1 heavy with D76N, A110D
chain: B1 chain
light: B1 light
notes: one-arm antibody
B22: CE115HA000 A102I one-arm antibody (antibody, human IgG1, kappa, L234A L235A, N297A, name in Kabat numbering)
heavy: B1 heavy with A110D, A111I
chain: B1 chain
light: B1 light
notes: one-arm antibody
B23: CE115HA000 D73E one-arm antibody (antibody, human IgG1, kappa, L234A L235A, N297A, name in Kabat numbering)
heavy: B1 heavy with D76E, A110D
chain: B1 chain
light: B1 light
notes: one-arm antibody
B24: CE115HA000 A99Q one-arm antibody (antibody, human IgG1, kappa, L234A L235A, N297A, name in Kabat numbering)
heavy: B1 heavy with A105Q, A110D
chain: B1 chain
light: B1 light
notes: one-arm antibody
B25: CE115HA000 D101H one-arm antibody (antibody, human IgG1, kappa, L234A L235A, N297A, name in Kabat numbering)
heavy: B1 heavy with A110H
chain: B1 chain
light: B1 light
notes: one-arm antibody
B26: CE115HA000 A99L one-arm antibody (antibody, human IgG1, kappa, L234A L235A, N297A, name in Kabat numbering)
heavy: B1 heavy with A105L, A110D
chain: B1 chain
light: B1 light
notes: one-arm antibody
B27: CE115HA000 D101N one-arm antibody (antibody, human IgG1, kappa, L234A L235A, N297A, name in Kabat numbering)
heavy: B1 heavy with A110N
chain: B1 chain
light: B1 light
notes: one-arm antibody
B28: CE115HA000 D72V one-arm antibody (antibody, human IgG1, kappa, L234A L235A, N297A, name in Kabat numbering)
heavy: B1 heavy with D75V, A110D
chain: B1 chain
light: B1 light
notes: one-arm antibody
B29: CE115HA000 D101F one-arm antibody (antibody, human IgG1, kappa, L234A L235A, N297A, name in Kabat numbering)
heavy: B1 heavy with A110F
chain: B1 chain
light: B1 light
notes: one-arm antibody
B30: CE115HA000 D73T one-arm antibody (antibody, human IgG1, kappa, L234A L235A, N297A, name in Kabat numbering)
heavy: B1 heavy with D76T, A110D
chain: B1 chain
light: B1 light
notes: one-arm antibody
B31: CE115HA000 D101I one-arm antibody (antibody, human IgG1, kappa, L234A L235A, N297A, name in Kabat numbering)
heavy: B1 heavy with A110I
chain: B1 chain
light: B1 light
notes: one-arm antibody

The source of these data is patent US20240270846A1 (published 2024).

Residue numbers refer to the chain shown, from its start. Names may count otherwise.

The experiment deals with T1, CD3 epsilon homodimer protein (UniProt P07766 23-126).
T1 construct: Construct of the homodimer protein is not described; also called CD3 (CD3 epsilon)
T1 sequence (P07766 23-126): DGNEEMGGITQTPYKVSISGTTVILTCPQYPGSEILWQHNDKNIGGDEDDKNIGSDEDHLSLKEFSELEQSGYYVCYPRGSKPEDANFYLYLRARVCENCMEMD
Put plainly: SPR (Biacore T200), CD3 epsilon homodimer on CM4 chip, one-arm antibody as analyte; ratio to unaltered CE115HA000.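 Also: surface plasmon resonance run at 25 °C with HBS-EP+ as running buffer, CD3 epsilon homodimer attached by amine coupling, antibody passed over as analyte.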
Turning to B1, the “KD ratio (KD value of CE115HA000/KD value of the altered form)” value (“KD ratio” below) amounted to 0.86.
In the case of B2, the “KD ratio” value was found to be 0.73.
For B3 the value was 0.71.
For B4, the “KD ratio” value came to 1.94.
With B5, the “KD ratio” value was 0.93.
The result for B6 reads 0.79; that for B7, 3.51; that for B8, 1.27.
Consider B9, for which the “KD ratio” value is 0.73.
The result for B10 reads 4.37.
Regarding B11, the “KD ratio” value was determined as 1.
Consider B12, for which the “KD ratio” value came to 1.03.
Consider B13, for which the “KD ratio” value came out at 0.76.
On to B14, for which the “KD ratio” value was 1.19.
Take B15: the “KD ratio” value was 1.4.
As to B16, the “KD ratio” value was 1.25.
With B17, the “KD ratio” value was found to be 0.78.
The result for B18 reads 1.15; that for B19, 3.16.
With B20, the “KD ratio” value is 0.74.
Take B21: the “KD ratio” value worked out at 0.7.
Regarding B22, the “KD ratio” value came to 1.29.
For B23 the value was 0.56.
Take B24: the “KD ratio” value is 0.85.
In the case of B25, the “KD ratio” value was 0.91.
The result for B26 reads 1.
Regarding B27, the “KD ratio” value came out at 2.28.
As to B28, the “KD ratio” value was found to be 1.17.
Take B29: the “KD ratio” value was 0.73.
The result for B30 reads 0.78; that for B31, 1.73.
